In publication PMC9389230, “Connective tissue growth factor-targeting DNA aptamer suppresses pannus formation as diagnostics and therapeutics for rheumatoid arthritis” one finds binding result and Kd data, which are given here for 1 molecule.

One data set concerns the target murine CTGF (SPR) (mouse, UniProt P29268 26-348). Nature of the data set: SPR; SPR: PBS running buffer, CTGF on CM5 chip, aptamer 9.375-600 nM, 10 ul/min (SA chip with biotinylated aptamer for cytokines and CTGF deletion mutants); dot blot: nitrocellulose, 10% BSA block, 1 uM biotinylated aptamer, room temperature; pH not stated. The note with it: protein: recombinant; label: biotin or Cy5 depending on assay.

In another data set the target is CTGF (CCN2) (UniProt P29279 27-349). Described as above. To be noted: protein: commercial; label: biotin or Cy5 depending on assay.

A word on the Kd: it is a measure of binding affinity in units of concentration. A higher Kd goes with a looser complex.

murine CTGF (SPR), sequence (P29268 26-348): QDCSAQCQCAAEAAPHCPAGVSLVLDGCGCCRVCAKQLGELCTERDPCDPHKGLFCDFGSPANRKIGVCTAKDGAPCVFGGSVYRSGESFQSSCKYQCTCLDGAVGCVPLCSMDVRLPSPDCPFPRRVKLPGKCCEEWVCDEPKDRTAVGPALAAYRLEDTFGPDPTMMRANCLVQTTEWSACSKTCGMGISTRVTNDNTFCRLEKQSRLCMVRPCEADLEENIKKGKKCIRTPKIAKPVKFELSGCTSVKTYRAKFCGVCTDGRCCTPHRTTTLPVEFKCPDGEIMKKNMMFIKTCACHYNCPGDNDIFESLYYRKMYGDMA
CTGF (CCN2), sequence (P29279 27-349): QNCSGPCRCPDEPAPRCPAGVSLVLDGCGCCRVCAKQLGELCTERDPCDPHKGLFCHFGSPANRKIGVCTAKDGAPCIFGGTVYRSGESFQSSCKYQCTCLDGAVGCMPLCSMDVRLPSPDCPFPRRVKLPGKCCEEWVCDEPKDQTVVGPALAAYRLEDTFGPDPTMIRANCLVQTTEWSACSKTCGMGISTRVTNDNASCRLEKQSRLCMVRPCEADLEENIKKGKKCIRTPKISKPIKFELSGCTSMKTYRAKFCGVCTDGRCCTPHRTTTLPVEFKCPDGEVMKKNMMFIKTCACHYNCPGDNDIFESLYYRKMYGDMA

With AGGCCGGGAGGGTACCCATTGATGGTGTGATGACTGCCT (ssDNA, 3' PEG (high molecular mass)) [AptW2-1-39-PEG], the binding result with murine CTGF (SPR) was “binds”. In addition, binding with CTGF (CCN2) was characterised by a dissociation constant (Kd) of 7.86 nM.
